Data on 41 sequences can be found in the nanobody polyreactivity screen of Harvey et al. (2022).

The nature of the series: yeast display, Sf9 membrane polyspecificity reagent, FACS + sequencing; frameworks hold sequencing errors. In outline: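 Synthetic nanobody libraries on Saccharomyces cerevisiae BJ5465 were galactose-induced for 36–48 hours, stained 1 hour at 4 °C with 10% biotinylated, detergent-solubilized Sf9 membrane reagent and enriched on streptavidin microbeads. FACS then separated cells into low and high (top ~1%) gates by anti-HA (expression) and streptavidin (reagent binding) fluorescence. Genes were colony-PCR amplified, MiSeq 2 × 250 sequenced and CDR-length filtered. A clone's polyreactivity label is that of its gate of origin.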
With “QVQLGESGGGLVQAGGSLRLTCAASGLIFYRNARGWYRQAPGKERELVAAISKNGGNTYYADSVKGRFTISRDYAKNTVYLQMNSLKPEDTAVYYCAARELYGPFGYWGQGTQVTVSS”, the “polyreactivity (PSR sort gate)” value is listed as “high polyreactivity”.
For the sequence “QVQLGESGGGLVQAGGSLRLTCAASGSIFSIYAMGWYIQAPGKERELVAAIDSGTSTTYADSVKGRFTISRDNAKYTVYLQMYSLKPEDTAVYYCAAALYSDVASVATYGYYWGQGTQVTVSS”, the “polyreactivity (PSR sort gate)” value is “low polyreactivity”.
“QVQLGESGGGLVQAGGSVRLSCAASGGTFGWYAMGWYRPAPGKERELVAAITSSGGTTFDADSVKGRFTISRDNAKNTVYLQMNSLKPEDTAVYYCAKRGQRPTRYKLGKYDYWGQGTQVTVSS”: the “polyreactivity (PSR sort gate)” value is listed as “high polyreactivity”.
The result for “QVQLGESGGGLVQAGVSLRLSCAASGRTFGSYAMGWYRQAPGKESEMVAVISWSGGITYYADSVKGRFTISRDNAKNTVYLQMNSLKPEDTAVYYCAASPRRDENAGRVRLYYWGQGTQVTVSS” reads “high polyreactivity”; that for “QVQLGESGGGLVQAVGSLRLSCAASGITFGENAMGWSRQADGKERELVAAITSGGSTDYADSVKGRFTISRDNAKNSVYLQMYCLKPEDTAVYYWAAEAVAYYGSSYGYWGQGTQVTVSS”, “low polyreactivity”; that for “QVQLGESGGVLVQAGGSLRLICAACGSTFSYYTMGWYRKAPGKEREVVAVIYTSGGNTYYADSVKGRFTISRDNAKNTVYLQMNSLKPEDTAVYYCAARWYGRGRYEYWGQGTQVTVSS”, “high polyreactivity”.
Then “QVQLGESGGVLVQEGGSLRLSSAASGSILSKYAIGWYRQAPGKERELVAVITSNSGRKYYADYLKGRFTISRDNAKNTVYLQMNSLKPEDTAVYYCAAQRRSSQNYYWGQGTQVTVSS”, with “high polyreactivity”; and “QVQLGESVGGLVQAGGSLRLSCAASGFIIGYYAMGWYRPPPGTERELVAAISSTGGSTYYADSVKGRFTISRDNAKNTVYLQMNSLNPEDTAVYYCAKRFASYRYHPGYDYWGQGTQVTVSS”, with “high polyreactivity”; and “QVQLHESGGGLVQAGGGLRLSCAASGSISSTGFMGWYRQAPGKEREPVAAIAPGTTTYYADSVKGRFTISRDNAKNTVYLQMNSLRPEDTAVFYCAVFTDNRVSFRYWGQGTQVTVSS”, with “low polyreactivity”.
For “QVQLHESGGGLVQAGGSLLSCAASGTISYYREMGWYRQAPGKERELVAGIGVGTITYYADSVKGRFTISRDNAKNTVYLHMNSLKPEDTAVYYCAAHFDGNDSHAYWGQGTQVTVSS”, the “polyreactivity (PSR sort gate)” value is given as “low polyreactivity”.
The result for “QVQLHESGGGLVQAGGSLRLSCAASGSISAVGAMGWNRQPPGKEREFAASVNWGTNTNYADSVKGRFTFSRDNAKNTLYLQMNSLKPEDTGVYYCAVLPDWETRHDYWGHGTQVTVSS” reads “low polyreactivity”; that for “QVQLHESGGGLVQAGGSLRLSCAASGTISYAGPMGWYRQAPGKEREFVAGIGVGSNTNYADSVKGRYTIIRDNAKNTVYLQMNSLKPEDTAVYYCAVGGYAPLGRPYWGQGTQVTVCS”, “low polyreactivity”; that for “QVQLHESGGGLVQAGGSLRLSCAASGTITDSGLMGWYRQAPGKERELVAGISSGGITNYADSVKGRFTISRDNAKNTVYLQMNSLKPEDTAVYWGQGTQVTVSS”, “low polyreactivity”.
With “QVQLHESGGGLVQAGGSQRLSCASSGYIFYFQYMGWYRQAPGKEREFVAAISDGANTNYADSVKGRFTISRDNAKNTEYLQMNSLKPEDTAVYYCNADQYYWYEYDYWGQGTQVTVSS”, the “polyreactivity (PSR sort gate)” value is reported as “low polyreactivity”.
The result for “QVQLHESGGGLVQVGGSQRLSCAASGNIFYNYAMGWYRHAQGKEREFDATINHGTSINYADSVKGRFTISRDNAKNTVYLQMNSLKPEDTAVYYCAADLSWTDNLFYWGQGTQVTVSS” reads “low polyreactivity”; that for “QVQLHGSGGGLVQAGCSLRVSCAASGYIFQNVPMGWTRQAPGKERELVAGIDNGTSTNYADSVNGRFTISRDNAKNTVYMQMNSLKPEDTAVYYCAAAGQADDTLGYWGQGTQVTVSS”, “low polyreactivity”.
Then “QVQLIESGGGLVHAGGSLRLSCAASGSTYQANTMGWYSHAPGKERQLVAAISIRGANTYYADSVKGRFTISRDNAKNTVYIQMNSLKPEDTAVYDCATRVRKYSLRLDYWGQGTQVTVSS”, with “high polyreactivity”; and “QVQLIESGGGLVQAGGSLRLSCAASGGTFRAYAMGWYRQAPGKEREFVAAITWSGGRTYYADSVKGRFTISRDNAKNTVYLQMNSLKPEDTEVYYCATDQGHYYHAEHDYWGQGTQVTVSS”, with “low polyreactivity”.
On to “QVQLIESGGGLVQAGGSLRLSCAASGLTFYSYAMGWYRQAPGKEREFVAVINWSGGRTYYADSVKGRFTISRDTAKNTVFLQMNSLKPEDTAVYYCAAVRYFASSRRYDYLGQGTQVTVSS”, for which the “polyreactivity (PSR sort gate)” value is on record as “high polyreactivity”.
On to “QVQLIESGGGLVQAGGSLRLSCAASGNIFAVYAMGWYRQAPGKERELVASITVSGASTYYADSVKGRFTISRDNAKNTVYLQMNSLKPEDTAVYYCAARIGSNQRKRYYWGQGTQVTVSS”, for which the “polyreactivity (PSR sort gate)” value is “high polyreactivity”.
The result for “QVQLIESGGGLVQAGGSLRLSCAASGSIFYINTMGWYRQAPGKERELVATIRTSGGSTYADSVKGRFTISRDNAKNTVYLQMNSLKPEDTAVYYCAVRRYRSSSYGYYSWGQGTQVTVSS” reads “high polyreactivity”; that for “QVQLIESGGGLVQAGGSLRLSCAASGSTGIYAMGWYRQAPGKERELVAAITRRAGSTYYADSVKGRFTISRDNAKNTVYLQMNSLKPEDTAVYYCAAKGLWWYGTYVSYEYWGKGTQVTVSS”, “low polyreactivity”; that for “QVQLKDSGCGLVQAGGSLRLSCAASGTISYRYRMGWYREAPRKELELVAGISFGSITYYADSVKGRFTISRDNAKNTVYLQMNSLKPVDIAVYYCAVYQKSYRFFPYWGQGTQVTVSS”, “high polyreactivity”.
Turning to “QVQLKESGGGLVQAGGSLRLSCAASGNIVDADIMGWYRQAPGKERELVASITDGGSTNYADSVKGRFTISRDNAKNTVYLQMNSLKPEDTAVYYCAAIAYPDIPTYFDYDSEYFYWGQGTQVTVSS”, the “polyreactivity (PSR sort gate)” value is listed as “low polyreactivity”.
Take “QVQLLESAGGLVQAGGSLRLSCAASGTIGYNGWYRQAPGKERELVAAISTRDGSTYYADSVKGRFTISRDNAMNTGYLQINSLKPEDTAVYYCAARYPSDYDYWGQGTQVTVSS”: the “polyreactivity (PSR sort gate)” value is on record as “low polyreactivity”.
Regarding “QVQLLESCGGLVQAGGSLRLSCAASGIIFARYAMGWYRPAPGKERELVASITTSGGRTYYADSVKGRFTISRDNAKNTVYLQMNSVKPEDTAVYYCAAYYKRDQMYYWGQGTQVTVSS”, the “polyreactivity (PSR sort gate)” value is “high polyreactivity”.
Then “QVQLLESGCGLVQAGGSLRLSCMASGSSLGDRMSWYRQAPGKEHELVATIYDGGITYYADSMKGRFTISRENAKNSVYLQMNSLRPEDTAVYYCGDSFEGYRYHVYCGQGTQVTVSS”, with “low polyreactivity”; and “QVQLLESGGGIVQAGGSLRLSCVASGFTISVYAMVWYRHAPGKERELVAAISRVGSSNYADSVKGRFTISRDNAKNTVYLHMISLKTEDTSVYYCNAVLRHTWVSRGYGSWGQGTQVSVSS”, with “high polyreactivity”; and “QVQLLESGGGLDQSGGSLRLSCAASGRIFTFNAMGWYRQAPGQERELVAAIRFRDGSTYYADSVKGRFTISRDNAKNNGYLQMYSLKPEDTAVYYSAATAYPWPYYYWGQGTQVTVSS”, with “high polyreactivity”.
The result for “QVQLLESGGGLFQAGGILRLSCAASGLIFWSNAMGWYRKEPGKERELVAAISRRGGRTYYADSVKGRFTISRDNAKNTVYVQMNSLKPEDSALYYCNADLYFLTFGYDYWGQGTQVTVSS” reads “high polyreactivity”; that for “QVQLLESGGGLVQAGGRHRLSCAASGRTFPGNAMGWYRKAPGKERELVAAISWSVDRTYYADSVKGRFTISRDNAKNTVYLQMNSLKPEDTSVYYCAAVEWWSSSLRMYYWGQGTQETVSS”, “low polyreactivity”; that for “QVQLLESGGGLVQAGGSHRLSCAASGYIFHYNAMGWYIQAPGKERELVAAISYSGGSTYYADSVKGRFTISRDNAKNTVYLQMNSLKPEDTAVYYCAASRRPFPGYYWGQGTQVTVSS”, “high polyreactivity”.
For “QVQLLESGGGLVQAGGSIRLSCSASGRTFARYVMGWYRQAPGKERELVASISNSGGSTYYSDSVKGRFTISRDNAQNTVYLQMNSLKPEDTEVYYCARRYYYYTTYRYDYWGQGTQVTVSS”, the “polyreactivity (PSR sort gate)” value was “high polyreactivity”.
Then “QVQLLESGGGLVQAGGSLRFTGAASGSTIAGNAMVWYRHEPGKERELVAVITRGGSTNYADSVKGRFTISRDNAKNNVYLQMNSLKPEDTAVYYCARYRFLLDYWRGGYYWGQGTQVTVSS”, with “high polyreactivity”.
Then “QVQLLESGGGLVQAGGSLRISCAASGFTFWYYAMGWYRQAPGKERELVAAITSSGGSTYYADSVKGRFTISRDNAKNTVYLQMNSLKPEDTAVYYCAAGAPYRYYYWGQGTQVTVSS”, with “high polyreactivity”.
In the case of “QVQLLESGGGLVQAGGSLRISCAASGIFDPNAMGWYIQAPGKERELVAAITSGGSTNYADSVKGRFTISRDNAKNTFYLQMNSLKPEDTAVYYCNEDYDRPDFYFWVQGTQVTVSS”, the “polyreactivity (PSR sort gate)” value was “low polyreactivity”.
The result for “QVQLLESGGGLVQAGGSLRISCAASGRTFTYNAMGWYRQAPGKERELVAAITASGGSTYYADSVKGRFTISRDNAKNTVYLQMNSLKPEDTAVYYCAARWSSPYVKLGYWGQGTQVTVSS” reads “high polyreactivity”; that for “QVQLLESGGGLVQAGGSLRLRCAASGFTFRKYTMGWYRQAPGKERELVAAISSGVSTNYADSVKGRFTISRDNAKKTVYLQMNSLKAEDTAVYYCAARGGYYQGRYKYGYWGQGTQVTVSS”, “high polyreactivity”; that for “QVQLLESGGGLVQAGGSLRLSCAASGFIFYEYAMGWYRQAPGKERELVAAITSGGSTDYADSVKGRFTISRDNAKNTVYLQMNSLKPEDTAVYYCNADLFTGYYWYNYWGQGTQVTVSS”, “low polyreactivity”.
Then “QVQLLESGGGLVQAGGSLRLSCAASGGTFPQYAMGWYRKAPGKERELVAVNTRSGRTNYADTVKARFTISRDNAKNTVYVQMNSLKPEDTAVYYCNADEVDDEVSPDLTEMDYWGQGTQVTVSS”, with “low polyreactivity”; and “QVQLLESGGGLVQAGGSLRLSCAASGLIMVYYTMGWYRQAPGKERELVASISKSGGRTYYADSVKGRFTISRDNAKNTVYLQMNSLKPEDTAVYYCAAQRVQYSRRDYWGQGTQVTVSS”, with “high polyreactivity”.
